Experimental data from IntAct's records for PubMed 31515488.

B1: Notch homolog 2 N-terminal-like protein A (Homo sapiens), Q7Z3S9 (parent)
chain: MCVTYHNGTGYCKCPEGFLGEYCQHRDPCEKNRCQNGGTCVAQAMLGKATCRCASGFTGEDCQYSTSHPCFVSRPCLNGGTCHMLSRDTYECTCQVGFTGKECQWTDACLSHPCANGSTCTTVANQFSCKCLTGFTGQKCETDVNECDIPGHCQHGGTCLNLPGSYQCQCLQGFTGQYCDSLYVPCAPSPCVNGGTCRQTGDFTFECNCLPETVRRGTELWERDREVWNGKEHDEN
partner: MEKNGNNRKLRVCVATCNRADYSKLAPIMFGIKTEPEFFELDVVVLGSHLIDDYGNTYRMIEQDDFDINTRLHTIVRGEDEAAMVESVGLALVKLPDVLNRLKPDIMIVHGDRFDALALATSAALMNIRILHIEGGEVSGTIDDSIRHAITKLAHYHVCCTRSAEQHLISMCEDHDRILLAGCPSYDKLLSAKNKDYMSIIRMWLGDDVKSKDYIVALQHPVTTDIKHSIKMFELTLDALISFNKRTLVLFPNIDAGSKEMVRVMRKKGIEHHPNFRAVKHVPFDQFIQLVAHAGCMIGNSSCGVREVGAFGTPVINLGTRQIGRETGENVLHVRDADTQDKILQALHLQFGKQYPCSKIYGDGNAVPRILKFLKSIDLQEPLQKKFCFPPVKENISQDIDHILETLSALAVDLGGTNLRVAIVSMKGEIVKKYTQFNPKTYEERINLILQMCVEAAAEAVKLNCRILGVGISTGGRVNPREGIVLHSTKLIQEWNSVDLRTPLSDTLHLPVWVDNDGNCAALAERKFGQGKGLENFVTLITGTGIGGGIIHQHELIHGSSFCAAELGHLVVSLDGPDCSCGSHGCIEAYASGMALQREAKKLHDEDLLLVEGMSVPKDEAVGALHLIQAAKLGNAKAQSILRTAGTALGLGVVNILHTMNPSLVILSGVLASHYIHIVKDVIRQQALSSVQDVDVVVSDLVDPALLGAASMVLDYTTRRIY
B2: Microtubule-associated tumor suppressor candidate 2 (Homo sapiens), Q5JR59-3 (parent)
chain: MGHCCCKPYNCLQCLDKTNESALVKEKELSIELANIRDEVAFHTAKCEKLQKEKEELERRFEDEVKRLGWQQQAELQELEERLQLQFEAEMARLQEEHGDQLLSIRCQHQEQVEDLTASHDAALLEMENNHTVAITILQDDHDHKVQELMSTHELEKKELEENFEKLRLSLQDQVDTLTFQSQSLRDRARRFEEALRKNTEEQLEIALAPYQHLEEDMKSLKQVLEMKNQQIHEQEKKILELEKLAEKNIILEEKIQVLQQQNEDLKARIDQNTVVTRQLSEENANLQEYVEKETQEKKRLSRTNEELLWKLQTGDPTSPIKLSPTSPVYRGSSSGPSSPARVSTTPR
partner: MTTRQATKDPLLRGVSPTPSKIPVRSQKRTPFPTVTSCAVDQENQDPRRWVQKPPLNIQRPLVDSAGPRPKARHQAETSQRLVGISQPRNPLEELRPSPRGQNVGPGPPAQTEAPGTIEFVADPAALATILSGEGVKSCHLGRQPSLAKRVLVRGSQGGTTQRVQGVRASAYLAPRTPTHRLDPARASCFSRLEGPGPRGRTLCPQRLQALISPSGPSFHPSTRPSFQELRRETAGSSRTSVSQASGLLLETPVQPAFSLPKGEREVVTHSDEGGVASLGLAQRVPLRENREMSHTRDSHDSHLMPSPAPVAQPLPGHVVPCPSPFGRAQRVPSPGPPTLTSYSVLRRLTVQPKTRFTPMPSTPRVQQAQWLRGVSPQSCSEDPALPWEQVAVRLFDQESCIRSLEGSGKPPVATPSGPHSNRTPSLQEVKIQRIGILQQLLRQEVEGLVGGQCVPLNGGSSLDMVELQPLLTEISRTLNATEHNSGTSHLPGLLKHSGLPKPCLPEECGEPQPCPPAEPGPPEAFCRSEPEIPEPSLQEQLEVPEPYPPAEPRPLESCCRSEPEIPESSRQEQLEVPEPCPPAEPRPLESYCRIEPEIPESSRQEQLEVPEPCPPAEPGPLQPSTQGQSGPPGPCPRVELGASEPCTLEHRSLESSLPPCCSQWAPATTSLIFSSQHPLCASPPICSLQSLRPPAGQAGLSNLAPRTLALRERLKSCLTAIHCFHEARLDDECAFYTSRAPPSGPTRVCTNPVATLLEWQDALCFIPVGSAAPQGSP
B3: Protein N-lysine methyltransferase METTL21A (Homo sapiens), Q8WXB1 (parent)
chain: MALVPYEETTEFGLQKFHKPLATFSFANHTIQIRQDWRHLGVAAVVWDAAIVLSTYLEMGAVELRGRSAVELGAGTGLVGIVAALLGAHVTITDRKVALEFLKSNVQANLPPHIQTKTVVKELTWGQNLGSFSPGEFDLILGADIIYLEETFTDLLQTLEHLCSNHSVILLACRIRYERDNNFLAMLERQFTVRKVHYDPEKDVHIYEAQKRNQKEDL
B4: Zinc finger protein RFP (Homo sapiens), P14373 (parent)
chain: MASGSVAECLQQETTCPVCLQYFAEPMMLDCGHNICCACLARCWGTAETNVSCPQCRETFPQRHMRPNRHLANVTQLVKQLRTERPSGPGGEMGVCEKHREPLKLYCEEDQMPICVVCDRSREHRGHSVLPLEEAVEGFKEQIQNQLDHLKRVKDLKKRRRAQGEQARAELLSLTQMEREKIVWEFEQLYHSLKEHEYRLLARLEELDLAIYNSINGAITQFSCNISHLSSLIAQLEEKQQQPTRELLQDIGDTLSRAERIRIPEPWITPPDLQEKIHIFAQKCLFLTESLKQFTEKMQSDMEKIQELREAQLYSVDVTLDPDTAYPSLILSDNLRQVRYSYLQQDLPDNPERFNLFPCVLGSPCFIAGRHYWEVEVGDKAKWTIGVCEDSVCRKGGVTSAPQNGFWAVSLWYGKEYWALTSPMTALPLRTPLQRVGIFLDYDAGEVSFYNVTERCHTFTFSHATFCGPVRPYFSLSYSGGKSAAPLIICPMSGIDGFSGHVGNHGHSMETSP
partner: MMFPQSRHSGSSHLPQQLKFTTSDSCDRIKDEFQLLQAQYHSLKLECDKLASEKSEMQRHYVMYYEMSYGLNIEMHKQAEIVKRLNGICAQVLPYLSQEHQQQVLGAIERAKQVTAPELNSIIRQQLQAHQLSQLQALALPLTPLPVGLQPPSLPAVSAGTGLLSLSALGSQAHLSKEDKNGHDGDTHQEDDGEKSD
B5: Adenosylhomocysteinase (Homo sapiens), P23526 (parent)
chain: MSDKLPYKVADIGLAAWGRKALDIAENEMPGLMRMRERYSASKPLKGARIAGCLHMTVETAVLIETLVTLGAEVQWSSCNIFSTQDHAAAAIAKAGIPVYAWKGETDEEYLWCIEQTLYFKDGPLNMILDDGGDLTNLIHTKYPQLLPGIRGISEETTTGVHNLYKMMANGILKVPAINVNDSVTKSKFDNLYGCRESLIDGIKRATDVMIAGKVAVVAGYGDVGKGCAQALRGFGARVIITEIDPINALQAAMEGYEVTTMDEACQEGNIFVTTTGCIDIILGRHFEQMKDDAIVCNIGHFDVEIDVKWLNENAVEKVNIKPQVDRYRLKNGRRIILLAEGRLVNLGCAMGHPSFVMSNSFTNQVMAQIELWTHPDKYPVGVHFLPKKLDEAVAEAHLGKLNVKLTKLTEKQAQYLGMSCDGPFKPDHYRY
partner: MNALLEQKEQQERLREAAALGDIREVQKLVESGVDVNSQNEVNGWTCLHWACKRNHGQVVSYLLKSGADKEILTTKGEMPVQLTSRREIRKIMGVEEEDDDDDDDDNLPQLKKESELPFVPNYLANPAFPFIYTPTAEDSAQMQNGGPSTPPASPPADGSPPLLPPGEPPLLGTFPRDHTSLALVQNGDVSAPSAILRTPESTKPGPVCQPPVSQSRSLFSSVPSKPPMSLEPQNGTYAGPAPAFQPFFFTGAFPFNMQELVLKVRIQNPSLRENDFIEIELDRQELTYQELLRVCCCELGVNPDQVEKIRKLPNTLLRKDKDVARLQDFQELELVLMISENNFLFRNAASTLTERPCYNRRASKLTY
B6: Septin-2 (Homo sapiens), Q15019 (parent)
chain: MSKQQPTQFINPETPGYVGFANLPNQVHRKSVKKGFEFTLMVVGESGLGKSTLINSLFLTDLYPERVIPGAAEKIERTVQIEASTVEIEERGVKLRLTVVDTPGYGDAINCRDCFKTIISYIDEQFERYLHDESGLNRRHIIDNRVHCCFYFISPFGHGLKPLDVAFMKAIHNKVNIVPVIAKADTLTLKERERLKKRILDEIEEHNIKIYHLPDAESDEDEDFKEQTRLLKASIPFSVVGSNQLIEAKGKKVRGRLYPWGVVEVENPEHNDFLKLRTMLITHMQDLQEVTQDLHYENFRSERLKRGGRKVENEDMNKDQILLEKEAELRRMQEMIARMQAQMQMQMQGGDGDGGALGHHV
partner: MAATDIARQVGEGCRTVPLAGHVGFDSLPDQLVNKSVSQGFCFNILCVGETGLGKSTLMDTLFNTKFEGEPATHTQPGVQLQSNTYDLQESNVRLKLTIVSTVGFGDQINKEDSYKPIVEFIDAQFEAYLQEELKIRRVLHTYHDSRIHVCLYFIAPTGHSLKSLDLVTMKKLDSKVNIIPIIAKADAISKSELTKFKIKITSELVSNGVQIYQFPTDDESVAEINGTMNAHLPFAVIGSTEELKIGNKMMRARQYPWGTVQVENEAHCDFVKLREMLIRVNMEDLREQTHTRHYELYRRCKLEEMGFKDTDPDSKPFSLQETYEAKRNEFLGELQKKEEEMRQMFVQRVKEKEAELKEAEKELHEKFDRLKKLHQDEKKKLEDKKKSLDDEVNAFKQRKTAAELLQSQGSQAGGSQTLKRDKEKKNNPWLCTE
B7: Microtubule-associated tumor suppressor candidate 2 (Homo sapiens), Q5JR59-3 (parent)
chain: B2 chain
partner: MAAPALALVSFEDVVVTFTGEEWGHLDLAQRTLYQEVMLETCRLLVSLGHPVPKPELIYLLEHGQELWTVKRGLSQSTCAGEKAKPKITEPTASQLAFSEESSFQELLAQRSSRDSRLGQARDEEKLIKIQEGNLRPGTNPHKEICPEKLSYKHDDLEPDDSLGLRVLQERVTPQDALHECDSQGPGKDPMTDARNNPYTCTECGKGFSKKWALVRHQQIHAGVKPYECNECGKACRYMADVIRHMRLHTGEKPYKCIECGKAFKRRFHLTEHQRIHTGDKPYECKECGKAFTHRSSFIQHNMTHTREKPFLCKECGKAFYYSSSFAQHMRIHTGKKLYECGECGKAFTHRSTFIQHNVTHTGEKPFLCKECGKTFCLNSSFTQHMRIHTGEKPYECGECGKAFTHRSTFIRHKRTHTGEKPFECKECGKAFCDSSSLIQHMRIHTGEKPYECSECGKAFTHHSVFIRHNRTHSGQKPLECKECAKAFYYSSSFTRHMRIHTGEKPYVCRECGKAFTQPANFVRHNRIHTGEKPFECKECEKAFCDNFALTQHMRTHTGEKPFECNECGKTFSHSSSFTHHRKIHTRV

Variants of: B1
Conditions: with glcne_human GNE

effect of a mutation on the interaction | Variant
with no effect | R74Q
with no effect | A115T

Variants of: B2
Conditions: with troap_human TROAP

effect of a mutation on the interaction | Variant
with no effect | A89V

Variants of: B3
Conditions: with FAM200C

effect of a mutation on the interaction | Variant
disrupting interaction strength | A209P

Variants of: B4
Conditions: with tle5_human TLE5, Q08117

effect of a mutation on the interaction | Variant
with no effect | N355S

Variants of: B5
Conditions: with anr40_human ANKRD40, Q6AI12

effect of a mutation on the interaction | Variant
with no effect | I92V

Variants of: B6
Conditions: with sept6_human SEPTIN6, Q14141

effect of a mutation on the interaction | Variant
with no effect | H270D

Variants of: B7
Conditions: with zn599_human ZNF599, Q96NL3

effect of a mutation on the interaction | Variant
with no effect | A89V
